From patent US20230048633A1 (SHATTUCK LABS, published 2023)

T1: m4-1BB expressed on CHO-K1 cells (CHO-K1/m4-1BB+ (C20)) (mouse, UniProt P20334 24-256)
T1 construct: whole, on cells; also called CHO-K1/4-1BB cells; 4-1BB expressed by the CHO-K1/4-1BB cells
T1 sequence (looked up): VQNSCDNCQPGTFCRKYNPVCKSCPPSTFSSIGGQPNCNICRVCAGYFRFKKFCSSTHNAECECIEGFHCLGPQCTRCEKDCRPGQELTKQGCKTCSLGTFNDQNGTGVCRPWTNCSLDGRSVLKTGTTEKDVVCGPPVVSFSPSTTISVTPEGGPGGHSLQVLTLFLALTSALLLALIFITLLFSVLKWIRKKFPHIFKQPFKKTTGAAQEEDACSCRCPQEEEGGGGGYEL

T2: recombinant mouse 4-1 BB Ligand protein (R&D Systems, Cat. No. 1246-4L) (mouse, UniProt P41274 104-309)
T2 construct: Bought reagent; also called commercially available recombinant mouse 4-1 BB Ligand protein
T2 sequence (looked up): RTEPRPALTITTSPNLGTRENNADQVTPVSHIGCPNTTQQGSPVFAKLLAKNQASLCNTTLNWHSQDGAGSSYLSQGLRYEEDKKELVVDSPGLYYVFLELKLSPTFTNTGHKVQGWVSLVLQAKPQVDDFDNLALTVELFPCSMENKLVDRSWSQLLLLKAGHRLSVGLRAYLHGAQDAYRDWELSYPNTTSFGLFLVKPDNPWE

B1: hTGFBR2-Fc-NKG2A chimeric protein (Fc fusion)
chain: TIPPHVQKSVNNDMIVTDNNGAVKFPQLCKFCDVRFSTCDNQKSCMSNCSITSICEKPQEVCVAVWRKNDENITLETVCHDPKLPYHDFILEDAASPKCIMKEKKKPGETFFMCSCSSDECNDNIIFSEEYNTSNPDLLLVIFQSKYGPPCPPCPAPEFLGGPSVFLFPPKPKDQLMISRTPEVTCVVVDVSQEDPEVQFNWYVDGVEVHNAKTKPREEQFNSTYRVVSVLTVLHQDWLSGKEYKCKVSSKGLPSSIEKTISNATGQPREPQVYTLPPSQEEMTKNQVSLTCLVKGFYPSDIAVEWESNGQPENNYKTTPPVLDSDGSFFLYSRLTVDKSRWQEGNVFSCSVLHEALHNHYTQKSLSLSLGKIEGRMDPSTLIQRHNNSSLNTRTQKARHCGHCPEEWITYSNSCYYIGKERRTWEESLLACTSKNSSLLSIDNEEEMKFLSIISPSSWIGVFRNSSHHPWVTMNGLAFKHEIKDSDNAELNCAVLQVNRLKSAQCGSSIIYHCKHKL
notes: also called human TGFBR2-Fc-NKG2A
B2: mTGFBR2-Fc-4-1BBL chimeric protein (Fc fusion, mouse, UniProt Q62312 24-166, looked up)
chain: IPPHVPKSVNSDVMASDNGGAVKLPQLCKFCDVRLSTCDNQKSCMSNCSITAICEKPHEVCVAVWRKNDKNITLETVCHDPKLTYHGFTLEDAASPKCVMKEKKRAGETFFMCACNMEECNDYIIFSEEYTTSSPDLLLVIIQVPRDCGCKPCICTVPEVSSVFIFPPKPKDVLTITLTPKVTCVVVDISKDDPEVQFSWFVDDVEVHTAQTQPREEQFNSTFRSVSELPIMHQDWLNGKEFKCRVNSAAFPAPIEKTISKTKGRPKAPQVYTIPPPKEQMAKDKVSLTCMITDFFPEDITVEWQWNGQPAENYKNTQPIMNTNGSYFVYSKLNVQKSNWEAGNTFTCSVLHEGLHNHHTEKSLSHSPGKRTEPRPALTITTSPNLGTRENNADQVTPVSHIGCPNTTQQGSPVFAKLLAKNQASLCNTTLNWHSQDGAGSSYLSQGLRYEEDKKELVVDSPGLYYVFLELKLSPTFTNTGHKVQGWVSLVLQAKPQVDDFDNLALTVELFPCSMENKLVDRSWSQLLLLKAGHRLSVGLRAYLHGAQDAYRDWELSYPNTTSFGLFLVKPDNPWE
notes: extracellular domain;domain: hinge-CH2-CH3 Fc domain; also called murine TGFBR2-Fc-4-1BBL; TGFBR2-Fc-CD137L
B3: recombinant 4-1BB-His protein (receptor, mouse, UniProt P20334 24-187, looked up)
chain: VQNSCDNCQPGTFCRKYNPVCKSCPPSTFSSIGGQPNCNICRVCAGYFRFKKFCSSTHNAECECIEGFHCLGPQCTRCEKDCRPGQELTKQGCKTCSLGTFNDQNGTGVCRPWTNCSLDGRSVLKTGTTEKDVVCGPPVVSFSPSTTISVTPEGGPGGHSLQVL
notes: also called m4-1BB-His; CD137; not shown: His tag

Experiments:
anti-human IgG antibody = target: T3, anti-human IgG antibody; assay: ELISA: plate coated with Anti-Human IgG (H+L) Jax# 109-005-088, titrated protein captured, detected with HRP Goat anti-human FCgamma Jax# 109-035-008
T3 construct: also called anti-human Fc antibody
Method: To understand whether the human Fc linkers from the native chimeric proteins can be accessed by anti-human antibodies, ELISA-based assays were performed. For these assays, an anti-human IgG antibody was coated on plates and increasing amounts of the hCD86-Fc-NKG2A, hTGFBR2-Fc-NKG2A, and mCD80-Fc-NKG2a chimeric proteins, and a human IgG antibody were added to the plates for capture by the plate-bound anti-human antibody. The human IgG antibody and the hCD86-Fc-NKG2A chimeric protein were used as a positive control. The mCD80-Fc-NKG2a chimeric protein was included as a negative control as containing a non-human Fc domain. The protein bound to the anti-human IgG antibody was detected using an anti-human Fcgamma HRP.

[1] = target: T1, m4-1BB expressed on CHO-K1 cells …; assay: flow cytometry on CHO-K1/m4-1BB+ (C20) cells, detected with Anti-mFc-APC (Jax 1:50)
Method: To understand whether the 4-1BBL part of the mTGFBR2-Fc-4-1BBL chimeric protein can specifically bind cells expressing 4-1BB, cells expressing 4-1 BB were generated. Specifically, the CHO-K1 cells expressing 4-1 BB were generated using standard techniques. Clone 20, a positive clone, called CHO-K1/m4-1BB+ (C20), was used for further studies. To determine whether the mTGFBR2-Fc-4-1BBL chimeric protein can specifically bind the CHO-K1/4-1BB cells, a flow-cytometry-based assay was carried out. CHO-K1/m4-1BB+(C20) and WT CHO-K1 cells were stained with increasing concentrations of the TGFBR2-Fc-4-1BBL chimeric protein, or positive control protein comprising Fc-4-1BBL (Control-Fc-4-1BBL) and analyzed by flow cytometry. Unstained CHO-K1/m4-1BB+ (C20) and WT CHO-K1 cells or CHO-K1/m4-1BB+ (C20) and WT CHO-K1 cells stained without the TGFBR2-Fc-4-1BBL chimeric protein, or positive control protein comprising Fc-4-1BBL (Control-Fc-4-1BBL) were used as control.

[2] = target: B3; assay: ELISA: plate coated with 41BB-His (5ug/ml, Acro 41B-M52H7), titrated protein captured, detected with α-mFc-HRP (1:10k, Jax 115-036-003)
Method: The TGFBR2-based chimeric proteins harbor type II transmembrane protein domains at or near the C-terminus. To understand whether the type II transmembrane protein domains from the native chimeric proteins can bind their natural ligands/receptors, ELISA-based assays were performed. TGFBR2-Fc-4-1BBL comprises 4-1BB ligand (4-1BBL or TNFSF9) as the type II membrane protein located at or near the C-terminus. 4-1BB (CD137, TNFRSF9) is the natural receptor/ligand of 4-1BBL. To understand whether the type II transmembrane protein domain part of the native TGFBR2-Fc-4-1BBL chimeric protein can bind 4-1BB, ELISA-based assays were performed. Recombinant 4-1BB-His protein was coated on plates. Increasing amounts of the TGFBR2-Fc-4-1BBL chimeric protein, or a positive control protein comprising Fc-4-1BBL (Control-Fc-4-1BBL) were added for capture by the plate-bound 4-1BB-His protein. Binding was detected using an anti mFc-HRP antibody. […] Therefore, the type II transmembrane protein domain of the TGFBR2-Fc-4-1BBL and Control-Fc-4-1BBL chimeric proteins bind to the natural ligand/receptor of the 4-1BBL.

[3] = target: T2, recombinant mouse 4-1 BB Ligand protein …; assay: Octet (4-1BB Arc Octet): 41BB His (5ug/ml, Acro 41B-M52H7) on the tip, All Molecules at 30ug/ml; rm41BBL R&D 1246-4L
Method: To study the binding kinetics of type II transmembrane protein domain and TGFBR2 parts of the illustrative TGFBR2-based chimeric proteins, binding assays were performed using the Octet system (ForteBio). Binding of the TGFBR2-Fc-4-1BBL chimeric protein to recombinant 4-1BB was analyzed. Briefly, recombinant 4-1BB-His protein was immobilized and detected using the mTGFBR2-Fc-4-1BBL chimeric protein, a positive control protein comprising Fc-4-1BBL (Control-Fc-4-1BBL) or commercially available recombinant mouse 4-1 BB Ligand protein (R&D Systems, Cat. No. 1246-4L). The binding response of the mTGFBR2-Fc-4-1BBL chimeric protein to 4-1BB-His protein was measured and plotted in real time on a sensorgram trace.

B1
EC50 (read off the curve) (anti-human IgG antibody): ~10 µg/mL

B2
EC50 (read off the curve) [1]: ~0.08 µg/mL | EC50 (read off the curve) [2]: ~0.07 µg/mL

B3
binding result [3]: binds
